Source: patent publication US20240425885

Assays:
Experiment in all cases: cleavage_in_vitro
[1] = tested on: T1, OMNI-93 (metagenomic, unknown); conditions: TXTL
T1 sequence: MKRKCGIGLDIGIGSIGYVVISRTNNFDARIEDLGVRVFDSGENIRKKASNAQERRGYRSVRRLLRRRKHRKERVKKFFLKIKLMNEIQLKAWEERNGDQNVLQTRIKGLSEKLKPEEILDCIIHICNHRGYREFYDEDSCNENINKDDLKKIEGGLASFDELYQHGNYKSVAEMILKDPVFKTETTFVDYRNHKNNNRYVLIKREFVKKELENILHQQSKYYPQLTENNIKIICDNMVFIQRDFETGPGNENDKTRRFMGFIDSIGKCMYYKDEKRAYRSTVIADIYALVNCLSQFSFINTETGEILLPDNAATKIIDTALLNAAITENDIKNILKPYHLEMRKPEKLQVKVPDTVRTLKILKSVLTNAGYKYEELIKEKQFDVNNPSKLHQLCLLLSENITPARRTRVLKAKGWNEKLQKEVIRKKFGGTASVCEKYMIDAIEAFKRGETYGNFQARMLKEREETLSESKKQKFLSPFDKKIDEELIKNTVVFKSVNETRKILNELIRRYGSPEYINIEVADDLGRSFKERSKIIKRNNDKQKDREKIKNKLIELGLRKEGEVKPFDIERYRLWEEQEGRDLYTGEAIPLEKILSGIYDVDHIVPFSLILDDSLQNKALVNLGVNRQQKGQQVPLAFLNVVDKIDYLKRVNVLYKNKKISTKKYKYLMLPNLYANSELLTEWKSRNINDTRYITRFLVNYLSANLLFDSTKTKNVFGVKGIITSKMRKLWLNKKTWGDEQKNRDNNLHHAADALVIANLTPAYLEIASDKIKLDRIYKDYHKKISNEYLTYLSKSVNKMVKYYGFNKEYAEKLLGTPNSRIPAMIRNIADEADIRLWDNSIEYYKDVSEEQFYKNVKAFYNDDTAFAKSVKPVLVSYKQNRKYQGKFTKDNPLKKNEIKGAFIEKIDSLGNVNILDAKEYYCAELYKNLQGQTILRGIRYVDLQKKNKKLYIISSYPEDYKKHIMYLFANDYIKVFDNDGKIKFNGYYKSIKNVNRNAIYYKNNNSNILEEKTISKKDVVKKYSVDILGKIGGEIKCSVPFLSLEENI

[2] = tested on: T2, OMNI-118 (metagenomic, unknown); conditions: TXTL; PAM NNRTTHNN
T2 sequence: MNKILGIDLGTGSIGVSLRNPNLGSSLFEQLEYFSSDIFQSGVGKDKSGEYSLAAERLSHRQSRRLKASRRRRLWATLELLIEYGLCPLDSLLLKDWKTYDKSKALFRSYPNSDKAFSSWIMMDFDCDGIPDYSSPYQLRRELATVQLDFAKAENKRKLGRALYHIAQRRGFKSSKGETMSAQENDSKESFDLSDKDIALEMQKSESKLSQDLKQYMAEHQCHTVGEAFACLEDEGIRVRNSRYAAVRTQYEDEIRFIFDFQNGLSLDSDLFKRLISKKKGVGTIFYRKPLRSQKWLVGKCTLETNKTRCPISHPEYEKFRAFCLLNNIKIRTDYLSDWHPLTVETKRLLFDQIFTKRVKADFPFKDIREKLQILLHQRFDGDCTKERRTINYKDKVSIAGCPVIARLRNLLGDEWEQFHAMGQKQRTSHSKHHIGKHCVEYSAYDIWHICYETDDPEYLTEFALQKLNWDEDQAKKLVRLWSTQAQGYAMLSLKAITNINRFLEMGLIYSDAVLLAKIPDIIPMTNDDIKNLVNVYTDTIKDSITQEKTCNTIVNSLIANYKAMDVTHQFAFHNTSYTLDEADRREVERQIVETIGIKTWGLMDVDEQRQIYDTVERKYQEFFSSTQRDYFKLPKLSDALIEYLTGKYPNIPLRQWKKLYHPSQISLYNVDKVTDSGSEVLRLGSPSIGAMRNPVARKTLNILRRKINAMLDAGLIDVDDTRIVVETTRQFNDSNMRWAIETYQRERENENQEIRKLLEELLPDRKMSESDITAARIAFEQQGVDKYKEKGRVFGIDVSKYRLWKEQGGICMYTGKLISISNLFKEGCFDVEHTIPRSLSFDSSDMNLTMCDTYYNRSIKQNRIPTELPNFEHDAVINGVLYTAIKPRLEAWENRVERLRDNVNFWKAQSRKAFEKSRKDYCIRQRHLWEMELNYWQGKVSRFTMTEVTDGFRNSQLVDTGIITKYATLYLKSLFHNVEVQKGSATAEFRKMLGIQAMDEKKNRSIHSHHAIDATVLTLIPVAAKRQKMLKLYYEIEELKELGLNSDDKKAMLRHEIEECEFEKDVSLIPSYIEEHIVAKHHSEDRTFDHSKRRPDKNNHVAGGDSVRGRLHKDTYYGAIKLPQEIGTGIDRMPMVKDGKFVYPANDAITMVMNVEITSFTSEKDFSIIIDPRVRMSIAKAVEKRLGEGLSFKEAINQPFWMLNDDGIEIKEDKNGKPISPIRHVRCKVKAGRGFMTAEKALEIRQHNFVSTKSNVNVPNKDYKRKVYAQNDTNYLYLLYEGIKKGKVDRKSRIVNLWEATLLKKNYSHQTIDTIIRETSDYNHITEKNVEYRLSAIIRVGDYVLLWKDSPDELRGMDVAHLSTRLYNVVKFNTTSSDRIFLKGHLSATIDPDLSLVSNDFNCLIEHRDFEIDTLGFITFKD

[3] = tested on: T3, OMNI-132 (metagenomic, unknown); conditions: TXTL; PAM NNAAATNN
T3 sequence: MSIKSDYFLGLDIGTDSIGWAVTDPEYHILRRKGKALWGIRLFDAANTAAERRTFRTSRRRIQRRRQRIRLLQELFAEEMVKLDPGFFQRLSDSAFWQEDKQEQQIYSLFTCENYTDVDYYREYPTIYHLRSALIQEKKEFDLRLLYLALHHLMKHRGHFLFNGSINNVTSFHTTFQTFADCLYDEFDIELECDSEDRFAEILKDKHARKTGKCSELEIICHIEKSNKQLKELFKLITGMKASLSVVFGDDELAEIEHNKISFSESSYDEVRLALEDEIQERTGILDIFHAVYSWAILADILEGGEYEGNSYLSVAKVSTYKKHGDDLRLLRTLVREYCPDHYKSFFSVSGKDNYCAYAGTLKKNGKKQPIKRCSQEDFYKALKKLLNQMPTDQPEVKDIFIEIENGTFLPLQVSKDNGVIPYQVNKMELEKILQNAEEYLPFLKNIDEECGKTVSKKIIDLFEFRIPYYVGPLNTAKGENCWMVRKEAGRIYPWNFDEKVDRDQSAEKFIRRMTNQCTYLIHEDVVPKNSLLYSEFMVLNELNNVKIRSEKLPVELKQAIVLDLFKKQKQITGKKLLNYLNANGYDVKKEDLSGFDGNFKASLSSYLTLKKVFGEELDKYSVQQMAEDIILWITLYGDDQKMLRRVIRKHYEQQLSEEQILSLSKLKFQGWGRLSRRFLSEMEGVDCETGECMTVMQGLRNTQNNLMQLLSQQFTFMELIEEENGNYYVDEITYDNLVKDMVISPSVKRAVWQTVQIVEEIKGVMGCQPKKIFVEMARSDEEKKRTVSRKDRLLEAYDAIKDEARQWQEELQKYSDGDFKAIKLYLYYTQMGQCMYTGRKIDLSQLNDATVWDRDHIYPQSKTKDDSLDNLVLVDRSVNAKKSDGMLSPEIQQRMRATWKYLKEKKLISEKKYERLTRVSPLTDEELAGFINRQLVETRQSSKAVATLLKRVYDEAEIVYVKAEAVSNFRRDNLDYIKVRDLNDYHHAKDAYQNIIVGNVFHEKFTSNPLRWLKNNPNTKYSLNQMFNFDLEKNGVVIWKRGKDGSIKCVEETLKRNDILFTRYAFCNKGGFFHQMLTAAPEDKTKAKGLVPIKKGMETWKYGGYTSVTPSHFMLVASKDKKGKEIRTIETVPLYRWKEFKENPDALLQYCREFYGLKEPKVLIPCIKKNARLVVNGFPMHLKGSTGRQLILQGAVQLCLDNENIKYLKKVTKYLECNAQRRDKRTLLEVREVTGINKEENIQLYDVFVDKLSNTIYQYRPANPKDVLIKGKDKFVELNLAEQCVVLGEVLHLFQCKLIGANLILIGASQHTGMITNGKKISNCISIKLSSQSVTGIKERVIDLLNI

| Sequence | activity (1-depletion score) [2] | activity (1-depletion score) [3] | also measured |
| --- | --- | --- | --- |
| GGAAGAGCAGAGCCUUGGUCUCGUCUUAGUACUCUGUUGGAAACAACAAUAGUUCUAAGAUAAGGCUAUUUAUGCCGUAGGGUAUGGUGGUAUCCCUUUAAUCCACCUUUAAGCCAUUGCUUAUGCAAUGGCUUAUCUAUAUUUUUU / GGAAGAGCAGAGCCTTGGTCTCNNNNNNNN / NNNNNNNNGAGACCAAGGCTCTGCTCTTCC [T2 sgRNA 4 V2 ; T2 protospacer + 8N PAM library (pbPOS T2)] | – | – | activity (1-depletion score) ([1]; PAM NNGGGGNN): 0.97 |
| GGAAGAGCAGAGCCUUGGUCUCGUUGUGAUUUGCUCUCAAAUGAAAAUUUGUGAGACUUAUCACAACAAGGCUAUAAGCCGAAGUAUUAACUCCGCGAUUAUGUCGUGGAGUUUUUUU / GGAAGAGCAGAGCCTTGGTCTCNNNNNNNN / NNNNNNNNGAGACCAAGGCTCTGCTCTTCC [T2 sgRNA 21 V2 ; T2 protospacer + 8N PAM library (pbPOS T2)] | 0.78 | – | – |
| GGAAGAGCAGAGCCUUGGUCUCGUUGUGAUUUGCUCUCAAAUGAAAAUUUGUGAGACUUAUCACAACAAGGCUAUAAGCCGAAGUAUUAACUCCGCGAUUUUGUCGUGGAGUUUUUUU / GGAAGAGCAGAGCCTTGGTCTCNNNNNNNN / NNNNNNNNGAGACCAAGGCTCTGCTCTTCC [T2 sgRNA 21 V1 ; T2 protospacer + 8N PAM library (pbPOS T2)] | 0.66 | – | – |
| GGAAGAGCAGAGCCUUGGUCUCGUUUGAGAGUAGUGUAAGAAAUUACACUACAAGUUCAAAUAAAAAUUUAUUCAAAUCCAUUUGCUACAUUGUGUAGAAUUUAAAGAUCUGGCAACAGAUCUUUUUUU / GGAAGAGCAGAGCCTTGGTCTCNNNNNNNN / NNNNNNNNGAGACCAAGGCTCTGCTCTTCC [T2 sgRNA 12 V2 ; T2 protospacer + 8N PAM library (pbPOS T2)] | – | 0.97 | – |
| GGAAGAGCAGAGCCUUGGUCUCGUUUGAGAGUAGUGUAAGAAAUUACACUACAAGUUCAAAUAAAAAUUUAUUCAAAUCCUUUUGCUACAUUGUGUAGAAUUUAAAGAUCUGGCAACAGAUCUUUUUUAUUUUUU / GGAAGAGCAGAGCCTTGGTCTCNNNNNNNN / NNNNNNNNGAGACCAAGGCTCTGCTCTTCC [T2 sgRNA 32 V1 ; T2 protospacer + 8N PAM library (pbPOS T2)] | – | 0.97 | – |
| GGAAGAGCAGAGCCUUGGUCUCGUUUUAGUACUCUGUUGGAAACAACAAUAGUUCUAAGAUAAGGCUAUUUAUGCCGUAGGGUAUGGUGGUAUCCCUUUAAUCCACCUUUAAGCCAUUGCUUAUGCAAUGGCUUAUCUAUAUUUUUU / GGAAGAGCAGAGCCTTGGTCTCNNNNNNNN / NNNNNNNNGAGACCAAGGCTCTGCTCTTCC [T2 sgRNA 4 V1 ; T2 protospacer + 8N PAM library (pbPOS T2)] | – | – | activity (1-depletion score) ([1]; PAM NNGGGGNN (specific NNRGGDNN)): 0.99 |
